For data set [1], the target named is T1, hGH fusion with PLVAP ECD, N-terminal deletion C (fusion protein C of Fig. 9) (Mus musculus, UniProt Q91VC4).
T1 construct: PLVAP, mouse; extends to the C terminus of PLVAP; Limit may be off by one residue; source: HEK/293T, transiently transfected, secreted, in serum-free conditioned medium; not shown: hGH (human growth hormone), N-terminal, kept
The data set is described as follows: far-Western, overlay or dot blot; immunoblot: hGH-PLVAP deletion fusions in conditioned medium resolved by SDS-PAGE, blots probed with mAb MECA-32 and rabbit anti-hGH, fluorescent secondary antibodies. The note with it: one partner purified.

In data set [2] the target is T2, hGH fusion with PLVAP ECD from amino acid 143, C-terminal deletion G (fusion protein G of Fig. 9) (Mus musculus, UniProt Q91VC4).
T2 construct: PLVAP, mouse; N terminus at amino acid 143 (QEQLKE...); Limit may be off by one residue; source: HEK/293T, transiently transfected, secreted, in serum-free conditioned medium; not shown: hGH (human growth hormone), N-terminal, kept
The description is as above. To be noted: one partner purified.

Data set [3] addresses T3, hGH fusion with PLVAP ECD from amino acid 104 to the C terminus (fusion protein A of Fig. 9) (Mus musculus, UniProt Q91VC4).
T3 construct: PLVAP, mouse; N terminus at amino acid 104 (TRREME...), extends to the C terminus of PLVAP; source: HEK/293T, transiently transfected, secreted, in serum-free conditioned medium; not shown: hGH (human growth hormone), N-terminal, kept
The description is as above. The note with it: one partner purified.

For data set [4], the target named is T4, AP–PLVAP CC2, alkaline phosphatase fused to PLVAP CC2 (Mus musculus, UniProt Q91VC4).
T4 construct: PLVAP, mouse, CC2; The plasmid codes for AP followed by a Myc tag and an 8xHis tag; source: HEK/293T, in conditioned media
The data set is described as follows: ELISA; MECA-32/hIgG immobilised on protein A-coated 96-well plates (4 °C overnight); conditioned media with AP-PLVAP CC2, 25 °C, 1 h; 10 mM HEPES pH 7.5, 0.15 M NaCl, 0.05% Tween-20 washes; colorimetric AP reaction (BluePhos). To be noted: one partner purified.

Data set [5] concerns the molecule itself. The data set is described as follows: crystal structure; PLVAP CC1; crystal form I (P212121, 0.2 M sodium malonate pH 5.0, 20% PEG3350, sulfur SAD) and crystal form II (I212121, 0.1 M sodium acetate pH 5.0, 15% PEG 4000), 21 °C.
Data set [6] concerns the molecule itself. The data set is described as follows: SDS-PAGE, reducing vs nonreducing; purified fragments from E. coli SHuffle after 3C cleavage; electrophoretic mobilities in reducing and nonreducing gels; shows disulfide-linked dimers.

B1: MECA-32, anti-PLVAP monoclonal antibody (antibody, V domains shown)
VH: EVQLVESGGGLVQPGRSMKLSCAASGFTFSDYYMAWVRQAPMKGLKWVASISYEGNKTYYGDSVKGRFTISRDNAKSILYLQMNSLKSEDTATYYCARQSYSSYIFDYWGQGVMVTVSS
VL: DIQMTQTPSSMSASLGERVTISCGTSQGVNIFLNWYQQKPDGTIKPLIFFTSHLQSGVPSRFSGSGSGTAYSLTISSLEPEDFAVYYCQQYDSSPPTFGGGTKLYLK
notes: heavy-chain constant region of the hybridoma antibody; light-chain constant region of the hybridoma antibody; the blots used the bought antibody of the same clone name; also called rat mAb MECA-32 (553849; BD Biosciences); source: bought: BD Biosciences (553849)
For B1, the binding result in data set [1], in data set [2] and in data set [3] was “binds” each time.

B2: MECA-32/hIgG, engineered MECA-32 antibody with human constant regions (antibody, V domains shown)
VH: B1 VH
VL: B1 VL
notes: mature VH of MECA-32; human heavy-chain IgG constant region (CH1, CH2 and CH3) with an HRV 3C protease cleavage site between CH1 and CH2; mature VL of MECA-32; human light-chain constant region (CL); Chimeric IgG; held on protein A-coated wells in the assay; also called MECA-32/IgG; engineered MECA-32 Ab; source: HEK/293T, cotransfected heavy- and light-chain plasmids, purified from conditioned …
For B2, the binding result in data set [4] is given as “binds”.

B3: PLVAP CC1, residues 141 to 229 (domain or fragment, mouse, UniProt Q91VC4 141-229, looked up)
chain: QCQEQLKEVNKTCEALLFKLGEKVKTLEMEVAKEKAVCSKDKESLLAGKRQTEEQLEACGKARERQQQEQQVTEENLRKVQSLCIPLDQ
notes: PLVAP, mouse, coiled-coil segment CC1, residues 141 to 229 (89 amino acids); Parallel dimer with five interchain disulfide bonds; also called pPMS1170; source: E. coli SHuffle T7, purified (IMAC, 3C protease cleavage, IMAC, SEC); not shown: thioredoxin (E. coli TrxA), N-terminal, cleaved; 8xHis, N-terminal, cleaved
As for B3, the “stoichiometry N” value in data set [5] was 2.

B4: PLVAP extracellular domain (full-length ECD), residues 52 to 438 (domain or fragment, mouse, UniProt Q91VC4 52-438, looked up)
chain: HATTESSLRATEIRADSLYSQVVGLSASQANLSKQLNISLLVKETVMQQLLTTRREMERINASFRQCQGDLITYINYNRFIAAIILSEKQCQEQLKEVNKTCEALLFKLGEKVKTLEMEVAKEKAVCSKDKESLLAGKRQTEEQLEACGKARERQQQEQQVTEENLRKVQSLCIPLDQEKFQADVLSAWRDSLIYRTLETLPYHYQLMPEYASLRRTCESLPGIMTTKIEELARGLRAGIERVTRENAELRRQKLELERAAQAAQEARARAGTEAQARETQLRAECARQTQLALEEKAALRAQRDNLERELEARKRELEQLRTEVDVRISALDTCVKAKSLPAVPPRVSGPPPNPPPIDPASLEEFKKRILESQRLPVVNPAAQPSG
notes: plasmalemma vesicle-associated protein (PLVAP), mouse, extracellular domain, residues 52 to 438; also called PLVAP ECD; pXG61; source: E. coli SHuffle T7, purified (IMAC, 3C protease cleavage, IMAC, SEC); not shown: thioredoxin (E. coli TrxA), N-terminal, cleaved; 8xHis, N-terminal, cleaved
As to B4, the binding result in data set [6] was “binds”.

B5: PLVAP CC2, residues 270 to 395 (domain or fragment, mouse, UniProt Q91VC4 270-395, looked up)
chain: ESLPGIMTTKIEELARGLRAGIERVTRENAELRRQKLELERAAQAAQEARARAGTEAQARETQLRAECARQTQLALEEKAALRAQRDNLERELEARKRELEQLRTEVDVRISALDTCVKAKSLPAV
notes: PLVAP, mouse, coiled-coil segment CC2, residues 270 to 395; also called pXG52; source: E. coli SHuffle T7, purified (IMAC, 3C protease cleavage, IMAC, SEC); not shown: thioredoxin (E. coli TrxA), N-terminal, cleaved; 8xHis, N-terminal, cleaved
Take B5: the binding result in data set [6] is given as “binds”.

The record behind these values is publication PMC10083539, “Structural insights into plasmalemma vesicle-associated protein (PLVAP): Implications for vascular endothelial diaphragms and fenestrae” (Proceedings of the National Academy of Sciences of the …, 2023).
